# Reference: PMC6210652, “Virus Sensor RIG-I Represses RNA Interference by Interacting with TRBP through LGP2 in Mammalian Cells”
# T1: LGP2 (UniProt Q96C10 1-678)
# T1 sequence: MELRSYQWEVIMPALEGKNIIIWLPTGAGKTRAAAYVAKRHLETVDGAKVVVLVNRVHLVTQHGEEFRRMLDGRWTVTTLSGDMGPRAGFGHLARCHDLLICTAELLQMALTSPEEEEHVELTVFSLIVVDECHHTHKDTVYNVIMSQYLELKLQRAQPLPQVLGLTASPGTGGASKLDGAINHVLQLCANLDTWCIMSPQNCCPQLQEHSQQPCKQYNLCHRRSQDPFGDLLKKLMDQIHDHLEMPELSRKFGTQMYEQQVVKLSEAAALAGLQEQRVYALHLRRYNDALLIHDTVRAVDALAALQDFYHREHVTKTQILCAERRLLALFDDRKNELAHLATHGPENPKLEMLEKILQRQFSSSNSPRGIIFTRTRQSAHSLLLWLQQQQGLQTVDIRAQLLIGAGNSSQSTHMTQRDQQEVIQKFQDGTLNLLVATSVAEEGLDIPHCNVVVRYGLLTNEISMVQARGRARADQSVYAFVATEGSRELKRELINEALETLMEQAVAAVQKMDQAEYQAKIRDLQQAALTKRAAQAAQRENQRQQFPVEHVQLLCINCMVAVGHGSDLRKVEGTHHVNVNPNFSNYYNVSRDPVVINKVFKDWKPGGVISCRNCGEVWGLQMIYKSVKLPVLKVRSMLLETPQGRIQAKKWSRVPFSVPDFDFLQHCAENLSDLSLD
# T2: MDA5 (UniProt Q9BYX4 1-1025)
# T2 sequence: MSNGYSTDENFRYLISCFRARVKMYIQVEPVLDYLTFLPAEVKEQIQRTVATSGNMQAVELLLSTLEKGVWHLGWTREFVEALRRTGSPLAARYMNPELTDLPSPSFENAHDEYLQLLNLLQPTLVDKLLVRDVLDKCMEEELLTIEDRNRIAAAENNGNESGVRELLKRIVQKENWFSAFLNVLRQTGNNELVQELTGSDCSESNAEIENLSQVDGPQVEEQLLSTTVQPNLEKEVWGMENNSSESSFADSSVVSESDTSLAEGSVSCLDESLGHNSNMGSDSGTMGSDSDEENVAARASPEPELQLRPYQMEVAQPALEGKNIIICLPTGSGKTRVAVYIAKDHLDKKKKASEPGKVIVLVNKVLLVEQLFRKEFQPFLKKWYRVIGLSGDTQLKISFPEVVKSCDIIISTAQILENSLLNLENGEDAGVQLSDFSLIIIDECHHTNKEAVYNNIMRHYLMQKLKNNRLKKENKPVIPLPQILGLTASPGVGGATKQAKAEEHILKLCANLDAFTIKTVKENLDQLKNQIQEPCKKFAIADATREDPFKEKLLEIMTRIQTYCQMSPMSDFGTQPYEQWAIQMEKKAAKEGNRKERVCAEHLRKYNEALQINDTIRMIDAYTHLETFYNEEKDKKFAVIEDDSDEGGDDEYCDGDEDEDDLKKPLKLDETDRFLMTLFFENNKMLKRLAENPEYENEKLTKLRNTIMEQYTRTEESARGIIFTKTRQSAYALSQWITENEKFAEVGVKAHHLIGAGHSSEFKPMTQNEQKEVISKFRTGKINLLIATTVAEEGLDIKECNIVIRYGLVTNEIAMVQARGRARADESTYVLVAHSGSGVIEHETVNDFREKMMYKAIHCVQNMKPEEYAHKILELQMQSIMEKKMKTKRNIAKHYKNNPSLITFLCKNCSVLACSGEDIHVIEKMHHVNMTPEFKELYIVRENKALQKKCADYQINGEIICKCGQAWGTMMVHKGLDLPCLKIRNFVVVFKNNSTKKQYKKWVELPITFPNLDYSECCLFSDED
# T3: RIG-I (UniProt O95786 1-925)
# T3 sequence: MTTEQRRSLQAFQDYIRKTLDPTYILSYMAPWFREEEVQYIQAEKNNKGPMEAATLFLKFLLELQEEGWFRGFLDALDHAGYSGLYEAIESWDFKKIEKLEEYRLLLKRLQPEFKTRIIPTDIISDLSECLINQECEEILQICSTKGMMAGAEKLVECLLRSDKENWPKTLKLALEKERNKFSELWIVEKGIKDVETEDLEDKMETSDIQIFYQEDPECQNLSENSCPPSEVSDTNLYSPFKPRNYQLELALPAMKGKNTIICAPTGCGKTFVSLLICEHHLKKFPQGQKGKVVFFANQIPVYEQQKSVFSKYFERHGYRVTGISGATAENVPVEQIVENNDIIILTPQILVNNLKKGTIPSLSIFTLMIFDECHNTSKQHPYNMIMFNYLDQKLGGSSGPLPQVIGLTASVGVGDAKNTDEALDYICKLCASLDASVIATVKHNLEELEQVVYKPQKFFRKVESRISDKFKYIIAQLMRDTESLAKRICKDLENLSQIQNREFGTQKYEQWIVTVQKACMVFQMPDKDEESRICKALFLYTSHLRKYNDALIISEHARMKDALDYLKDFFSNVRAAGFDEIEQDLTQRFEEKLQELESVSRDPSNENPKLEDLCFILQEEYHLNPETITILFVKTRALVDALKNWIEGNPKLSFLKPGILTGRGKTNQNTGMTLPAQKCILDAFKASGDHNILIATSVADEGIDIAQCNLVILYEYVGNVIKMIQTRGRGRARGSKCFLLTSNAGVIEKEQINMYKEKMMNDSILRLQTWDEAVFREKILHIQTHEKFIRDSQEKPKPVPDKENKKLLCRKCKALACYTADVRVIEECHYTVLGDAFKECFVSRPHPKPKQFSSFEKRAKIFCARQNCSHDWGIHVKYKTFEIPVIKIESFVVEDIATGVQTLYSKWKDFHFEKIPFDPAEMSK
# B1: siLuc-36 (dsRNA)
# RNA 1: UCUUCCAGCGGAUAGAAUGGC
# RNA 2: CAUUCUAUCCGCUGGAAGAUG
# Columns and labels:
# Assay in all cases: EMSA; 3 uM protein, 0.5 nM siRNA, 1.5 mM Mg2+; 20 mM Tris pH 8.0, 1.5 mM MgCl2, 50 mM NaCl, 1.5 mM DTT, 100 ng/uL sonicated salmon sperm DNA, 5% glycerol, 0.4 U/mL RNasin; 30 min on ice; 9% PAGE in 0.25x TBE
# Conditions in all cases: protein: recombinant; label: 5'-32P on guide strand; siRNA duplex 21-nt strands, 19 bp, 3' overhangs 2 nt on both strands
# [1] = target: T1, LGP2
# [2] = target: T2, MDA5
# [3] = target: T3, RIG-I
binder,measurement,setting,value
B1,binding result,[1],binds
same,binding result,[2],no binding
same,binding result,[3],binds
